This note sets out measurements from patent publication US20220406376A1 (MacroGenics, published 2022).

Assay [1] addresses T1, CD137 on the surface of cells (activated human T cells; engineered CHO cells) (human, UniProt Q07011 24-255).
T1 construct: whole, on cells; also called human CD137; cell surface expressed CD137
The experiment in a line: flow cytometry on activated pan T cells (donor D46433, CD8 PE), anti-hFc APC MFI.

In assay [2] the target is T2, 5T4 on the surface of target cells (JIMT-1, SKOV-3) (UniProt Q13641 32-420, limits assumed).
T2 construct: whole, on cells
T2 sequence (looked up): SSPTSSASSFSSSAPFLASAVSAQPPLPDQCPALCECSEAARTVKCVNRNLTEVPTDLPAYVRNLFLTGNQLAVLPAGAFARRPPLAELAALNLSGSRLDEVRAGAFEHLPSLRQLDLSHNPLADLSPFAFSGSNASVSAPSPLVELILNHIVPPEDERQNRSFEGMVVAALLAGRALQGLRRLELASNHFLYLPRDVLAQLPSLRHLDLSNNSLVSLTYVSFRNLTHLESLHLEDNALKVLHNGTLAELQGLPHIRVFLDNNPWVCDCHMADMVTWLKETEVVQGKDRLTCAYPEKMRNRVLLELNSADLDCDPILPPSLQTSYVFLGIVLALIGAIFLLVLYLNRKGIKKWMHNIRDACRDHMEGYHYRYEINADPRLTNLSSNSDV
In words: flow cytometry on JIMT-1 (5T4 hi) cells, anti-hFc APC MFI. For orientation: Flow cytometry measures light scatter and fluorescence of single cells or particles in a stream.

For assay [3], the target named is T3, HER2/neu on the surface of target cells (N87, JIMT-1, MCF-7, MDA-MB231) (UniProt P04626 23-1255, limits assumed).
T3 construct: whole, on cells
In words: flow cytometry on N87 cells, anti-hFc APC MFI.

Assay [4] addresses T1, CD137 on the surface of cells …. The experiment in a line: flow cytometry on activated CD8+ T cells (donor D59788, CD8 FITC), anti-hFc APC MFI.
For assay [5] the target is unchanged. The experiment in a line: flow cytometry on activated pan T cells (donor D46433, CD8 PE), anti-hFc APC MFI. This is another data set of the same source.

Substitutions are numbered along the chain they refer to.

T1 sequence (Q07011 24-255, change not shown): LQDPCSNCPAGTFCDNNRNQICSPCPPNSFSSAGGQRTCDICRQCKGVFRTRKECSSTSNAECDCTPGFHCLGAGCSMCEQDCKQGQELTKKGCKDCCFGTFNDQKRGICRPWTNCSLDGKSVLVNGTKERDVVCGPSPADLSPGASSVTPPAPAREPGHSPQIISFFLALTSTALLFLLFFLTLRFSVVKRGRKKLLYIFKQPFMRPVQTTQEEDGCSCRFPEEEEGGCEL

B1: TRIDENT-1 (bispecific antibody, human IgG1, kappa, L234A L235A)
chain 1: DIQMTQSPSSLSASVGDRVTITCRPSQDISNYLNWYQQKPDKTVKLLIYYTSRLRSGVPSRFSGSGSGTDFTFTISSLQPEDIATYFCQQGDTLPYTFGQGTKLEIKGGGSGGGGQVQLVQSGAEVKKPGASVKVSCKASGYTFTSYWINWVKQAPGQGLEWIGNIYPSDSYTNYNQKFKDKATITADKSTSTAYMELSSLRSEDTAVYYCTRDYGSAYSMSTWGQGTTVTVSSASTKGEVAACEKEVAALEKEVAALEKEVAALEKGGGDKTHTCPPCPAPEAAGGPSVFLFPPKPKDTLMISRTPEVTCVVVDVSHEDPEVKFNWYVDGVEVHNAKTKPREEQYNSTYRVVSVLTVLHQDWLNGKEYKCKVSNKALPAPIEKTISKAKGQPREPQVYTLPPSREEMTKNQVSLWCLVKGFYPSDIAVEWESNGQPENNYKTTPPVLDSDGSFFLYSKLTVDKSRWQQGNVFSCSVMHEALHNHYTQKSLSLSPGK
chain 2: DIQMTQSPSSLSASVGDRVTITCRPSQDISNYLNWYQQKPDKTVKLLIYYTSRLRSGVPSRFSGSGSGTDFTFTISSLQPEDIATYFCQQGDTLPYTFGQGTKLEIKGGGSGGGGQVQLVQSGAEVKKPGASVKVSCKASGYTFTSYWINWVKQAPGQGLEWIGNIYPSDSYTNYNQKFKDKATITADKSTSTAYMELSSLRSEDTAVYYCTRDYGSAYSMSTWGQGTTVTVSSASTKGKVAACKEKVAALKEKVAALKEKVAALKE
heavy: QVTLRESGPALVKPTQTLTLTCTFSGFSLSTSGMSVGWIRQPPGKALEWLADIWWDDKKDYNPSLKSRLTISKDTSKNQVVLKVTNMDPADTATYYCARSMITNWYFDVWGAGTTVTVSSASTKGPSVFPLAPSSKSTSGGTAALGCLVKDYFPEPVTVSWNSGALTSGVHTFPAVLQSSGLYSLSSVVTVPSSSLGTQTYICNVNHKPSNTKVDKRVEPKSCDKTHTCPPCPAPEAAGGPSVFLFPPKPKDTLMISRTPEVTCVVVDVSHEDPEVKFNWYVDGVEVHNAKTKPREEQYNSTYRVVSVLTVLHQDWLNGKEYKCKVSNKALPAPIEKTISKAKGQPREPQVYTLPPSREEMTKNQVSLSCAVKGFYPSDIAVEWESNGQPENNYKTTPPVLDSDGSFFLVSKLTVDKSRWQQGNVFSCSVMHEALHNRYTQKSLSLSPGK
light: DIQMTQSPSTLSASVGDRVTITCRASQSVGYMHWYQQKPGKAPKLLIYDTSKLASGVPSRFSGSGSGTEFTLTISSLQPDDFATYYCFQGSGYPFTFGGGTKLEIKRTVAAPSVFIFPPSDEQLKSGTASVVCLLNNFYPREAKVQWKVDNALQSGNSQESVTEQDSKDSTYSLSSTLTLSKADYEKHKVYACEVTHQGLSSPVTKSFNRGEC
notes: also called CD137×CD137×RSV control molecule; CD137×RSV control molecule
As to B1, the “EC50 (read off the curve)” value is about 0.03 nM in assay [1], about 7 ng/mL in assay [4] and about 0.03 nM in assay [5]. The binding result in assay [2] was “no binding (tested: 10 ug/mL)”; in assay [3] it was “no binding (tested: about 60 nM (last point))”.

B2: TRIDENT-4 (bispecific antibody, human IgG1, kappa, L234A L235A)
chain 1: B1 chain 1 with R24Q, P25A, S52G, L54A, K153R
chain 2: B1 chain 2 with R24Q, P25A, S52G, L54A, K153R
heavy: B1 heavy
light: B1 light
For B2, the binding result in assay [2] is reported as “no binding (tested: 10 ug/mL)”. Besides, in assay [4], the concentration giving a half-maximal response (EC50 (read off the curve)) is about 7 ng/mL.

As a reminder, the EC50 (read off the curve) is the midpoint of the concentration-response curve.
